Substitutions are numbered along the chain they refer to.
B1: CAPcons library member CAPcons_C (consensus, top 5G) (dsDNA)
DNA 1: GGCAGTGAGCTCTACGCAATAAATGTGATCTAGATCACATTTTAGGCAC
DNA 2: GTGCCTAAAATGTGATCTAGATCACATTTATTGCGTAGAGCTCACTGCC
B2: CAPcons library member CAPcons_G (top 5C) (dsDNA)
DNA 1: B1 DNA 1 with G25C
DNA 2: B1 DNA 2 with C25G
B3: CAPcons library member CAPcons_A (top 5T; table letter taken as bottom-strand base) (dsDNA)
DNA 1: B1 DNA 1 with G25T
DNA 2: B1 DNA 2 with C25A
B4: CAPcons library member CAPcons_T (top 5A; table letter taken as bottom-strand base) (dsDNA)
DNA 1: B1 DNA 1 with G25A
DNA 2: B1 DNA 2 with C25T
B5: CAPcons (consensus, pure; CAPcons_C, top 5G) (dsDNA)
DNA 1: B1 DNA 1
DNA 2: B1 DNA 2
B6: CAPcons position 5 C:G variant (pure; CAPcons_G) (dsDNA)
DNA 1: B1 DNA 1 with G25C
DNA 2: B1 DNA 2 with C25G

molecular target: T1, Alexa647-CAP (CAP-(Cys17;Ser178), catabolite activator protein) (Escherichia coli, UniProt P0ACJ8 1-210, H18C;C179S); assay: single-molecule fluorescence (SPIN-Seq library); 0.2 mM cAMP, 10 mM Mg2+; 40 mM Tris pH 8, 100 mM KCl, 10 mM MgCl2, 5% glycerol, 0.2 mM cAMP, 1 mM TROLOX, glucose oxidase/catalase; 1.25 nM (pure) or 2.5 nM (library) Alexa647-CAP; temperature not stated; conditions: protein: recombinant; tags: His6; Alexa647 maleimide (40% labelled); chain copies: 2; label: Cy3B at top position 11; 5' biotin on bottom strand; blunt

Row | Binder | Kd [nM]
1 | B1 | 10.6 ± 0.6
2 | B2 | 20.1 ± 0.9
3 | B3 | 29.1 ± 1.6
4 | B4 | 24.4 ± 0.8

molecular target: T1, Alexa647-CAP (CAP-(Cys17;Ser178), …); assay: single-molecule fluorescence (koff/kon); 0.2 mM cAMP, 10 mM Mg2+; 40 mM Tris pH 8, 100 mM KCl, 10 mM MgCl2, 5% glycerol, 0.2 mM cAMP, 1 mM TROLOX, glucose oxidase/catalase; 1.25 nM (pure) or 2.5 nM (library) Alexa647-CAP; temperature not stated; conditions: protein: recombinant; tags: His6; Alexa647 maleimide (40% labelled); chain copies: 2; label: Cy3B at top position 13; 5' biotin on bottom strand; blunt

Row | Binder | Kd [nM]
5 | B5 | 9.1 ± 0.6
6 | B6 | 20.2 ± 1.3
